According to patent US20050227296A1, “Method for indentifying integrin antagonists” (The General Hospital Corporation, a Massachusetts …, priority 1988, published 2005):

Assays:
[1] = molecular target: CD11b/CD18 on human neutrophils (human) (UniProt P05107); experiment: dissociation of biotinylated rNIF from washed neutrophils at 4 C, FACS
[2] = molecular target: CD11b/CD18 on human neutrophils (human) (UniProt P05107); experiment: Scatchard plot, biotinylated rNIF on resting or activated neutrophils at 4 C, FACS
[3] = molecular target: CD11b/CD18 on human neutrophils (human) (UniProt P05107); experiment: time course of biotinylated NIF binding to neutrophils at 4 C, FACS
[4] = molecular target: recombinant CD11b A domain (human) (UniProt P11215); experiment: Scatchard analysis of biotinylated rNIF binding to immobilized rA-domain
[5] = molecular target: recombinant human CD11b/CD18 expressed in COS cells (human) (UniProt P05107); experiment: rNIF against EAiC3b binding to recombinant CD11b/CD18 on COS cells, fluorescence
[6] = molecular target: CD11b/CD18 on human neutrophils (human) (UniProt P05107); experiment: biotinylated rNIF on f-met-leu-phe activated against resting neutrophils, FACS
[7] = molecular target: recombinant Ancylostoma caninum neutrophil adhesion inhibitor (NIF) (Ancylostoma caninum); experiment: competition: fluid-phase r11bA against biotinylated rNIF binding to immobilized r11bA, plate assay
[8] = molecular target: complement iC3b on erythrocytes (EAiC3b) (human) (UniProt P01024); experiment: fluid-phase rA-domain against EAiC3b binding to immobilized rA-domain
[9] = molecular target: recombinant Ancylostoma caninum neutrophil adhesion inhibitor (NIF) (Ancylostoma caninum); experiment: competition: fluid-phase r11bA against biotinylated rNIF binding to human neutrophils, FACS

Chain of complement iC3b on erythrocytes (EAiC3b) (human) (P01024 23-667 limits assumed, chain 1 of 3): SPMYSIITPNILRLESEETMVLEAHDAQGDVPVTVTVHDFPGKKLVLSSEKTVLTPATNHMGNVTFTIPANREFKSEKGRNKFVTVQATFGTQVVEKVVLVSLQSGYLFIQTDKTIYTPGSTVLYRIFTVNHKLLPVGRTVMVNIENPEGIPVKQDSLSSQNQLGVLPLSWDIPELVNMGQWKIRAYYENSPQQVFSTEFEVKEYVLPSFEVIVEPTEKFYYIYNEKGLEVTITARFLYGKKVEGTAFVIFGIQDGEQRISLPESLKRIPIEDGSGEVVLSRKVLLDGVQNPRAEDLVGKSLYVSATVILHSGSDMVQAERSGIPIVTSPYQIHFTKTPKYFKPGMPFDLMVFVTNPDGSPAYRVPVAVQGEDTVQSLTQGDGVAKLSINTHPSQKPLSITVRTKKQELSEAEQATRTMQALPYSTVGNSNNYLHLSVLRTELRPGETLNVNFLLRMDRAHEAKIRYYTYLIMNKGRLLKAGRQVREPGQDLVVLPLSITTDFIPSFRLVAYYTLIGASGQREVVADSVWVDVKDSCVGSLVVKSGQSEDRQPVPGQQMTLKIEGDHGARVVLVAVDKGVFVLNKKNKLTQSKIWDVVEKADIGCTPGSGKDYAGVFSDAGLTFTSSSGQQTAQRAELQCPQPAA
Chain of complement iC3b on erythrocytes (EAiC3b) (human) (P01024 749-1303 limits assumed, chain 2 of 3): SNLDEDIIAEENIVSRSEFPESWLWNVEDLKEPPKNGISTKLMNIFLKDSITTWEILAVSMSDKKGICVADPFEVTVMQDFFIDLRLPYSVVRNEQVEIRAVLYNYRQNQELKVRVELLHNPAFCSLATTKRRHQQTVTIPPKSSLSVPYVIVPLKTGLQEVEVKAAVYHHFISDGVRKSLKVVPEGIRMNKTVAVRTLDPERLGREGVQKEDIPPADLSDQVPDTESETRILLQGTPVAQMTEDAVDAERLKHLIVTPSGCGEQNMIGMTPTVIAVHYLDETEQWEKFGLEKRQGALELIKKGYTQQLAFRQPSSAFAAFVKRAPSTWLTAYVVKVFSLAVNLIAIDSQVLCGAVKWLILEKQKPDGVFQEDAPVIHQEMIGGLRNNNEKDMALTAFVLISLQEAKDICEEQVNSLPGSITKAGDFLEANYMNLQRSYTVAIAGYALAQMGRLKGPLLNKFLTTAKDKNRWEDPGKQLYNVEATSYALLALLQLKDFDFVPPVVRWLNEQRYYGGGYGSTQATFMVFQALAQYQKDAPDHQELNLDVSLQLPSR
Chain of complement iC3b on erythrocytes (EAiC3b) (human) (P01024 1321-1663 limits assumed, chain 3 of 3): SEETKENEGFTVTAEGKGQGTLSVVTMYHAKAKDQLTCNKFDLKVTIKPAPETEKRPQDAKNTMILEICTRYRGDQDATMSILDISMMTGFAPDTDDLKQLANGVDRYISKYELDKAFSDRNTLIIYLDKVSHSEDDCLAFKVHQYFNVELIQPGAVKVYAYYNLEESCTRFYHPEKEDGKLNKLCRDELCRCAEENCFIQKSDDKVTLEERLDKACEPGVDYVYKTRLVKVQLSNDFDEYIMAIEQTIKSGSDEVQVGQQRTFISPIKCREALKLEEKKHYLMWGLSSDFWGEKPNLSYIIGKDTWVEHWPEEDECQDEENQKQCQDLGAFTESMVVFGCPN

With “recombinant Ancylostoma caninum neutrophil adhesion inhibitor (NIF) (ligand)” as the substance, how does the t1/2 of dissociation [1] read?
Its t1/2 of dissociation is 7.6 h.

And the Kd [2]?
The Kd was 0.00035 to 0.0013 µM.

What about the t1/2 of association [3] of the same substance?
The t1/2 of association was 0.25 h.

And the Kd [4]?
Its Kd is 0.001 µM.

What about the IC50 [5] of the same substance?
Its IC50 is 0.005 µM.

And the concentration for complete inhibition [5]?
The concentration for complete inhibition was 3 mg/mL.

And the fold increase in NIF binding to activated vs resting cells [6]?
Its fold increase in NIF binding to activated vs resting cells is 12 fold.

For “recombinant CD11b A domain (from UniProt P11215 144-337) (receptor)”, which IC50 [7] is on record?
The IC50 was 0.001 µM.

What about the IC50 [8] of the same substance?
The IC50 was 1000 µM.

What about the IC50 [9] of the same substance?
The IC50 was 0.001 µM.
